Source: FireProtDB (doi:10.1002/prot.20309)

Details: 25 °C, GdnHCl, Phosphate 10 mM, whole UniProt chain shown
[1] = Bos taurus, pH 2, CD, transition: 3

B1: Beta-lactoglobulin-1A/1C wild type, P04119 (protein)
chain: MRCLLLTLGLALLCGVQAVEVTPIMTELDTQKVAGTWHTVAMAVSDVSLLDAKSSPLKAYVEGLKPTPEGDLEILLQKRENDKCAQEVLLAKKTDIPAVFKINALDENQLFLLDTDYDSHLLLCMENSASPEHSLVCQSLARTLEVDDQIREKFEDALKTLSVPMRILPAQLEEQCRV
denaturant m value (Sus scrofa, pH 2, Fluorescence): 2.2 kcal/mol/M
denaturant midpoint (higher = more stable) (Sus scrofa, pH 2, Fluorescence): 1 M
unfolding free energy (Sus scrofa, pH 2, Fluorescence): 2.1 kcal/mol
denaturant m value (Sus scrofa, pH 2, NMR): 3.5 kcal/mol/M
denaturant midpoint (higher = more stable) (Sus scrofa, pH 2, NMR): 0.7 M
unfolding free energy (Sus scrofa, pH 2, NMR): 2.3 kcal/mol
denaturant m value (Sus scrofa, pH 6, NMR): 4.2 kcal/mol/M
denaturant midpoint (higher = more stable) (Sus scrofa, pH 6, NMR): 1.1 M
unfolding free energy (Sus scrofa, pH 6, NMR): 4.6 kcal/mol

B2: Beta-lactoglobulin wild type, P02754 (protein)
chain: MKCLLLALALTCGAQALIVTQTMKGLDIQKVAGTWYSLAMAASDISLLDAQSAPLRVYVEELKPTPEGDLEILLQKWENGECAQKKIIAEKTKIPAVFKIDALNENKVLVLDTDYKKYLLFCMENSAEPEQSLACQCLVRTPEVDDEALEKFDKALKALPMHIRLSFNPTQLEEQCHI
denaturant m value [1]: 1 kcal/mol/M
denaturant midpoint (higher = more stable) [1]: 3.8 M
unfolding free energy [1]: 12.8 kcal/mol
denaturant m value (Bos taurus, pH 6, CD): 4.1 kcal/mol/M
denaturant midpoint (higher = more stable) (Bos taurus, pH 6, CD): 2.8 M
unfolding free energy (Bos taurus, pH 6, CD): 11.5 kcal/mol
